{"source": "patent US12241094B2", "about": "“Phenazine degrading agents and related compositions, methods and systems for interfering with viability of bacteria” (priority 2016, dated 2025)", "molecules": {"B1": {"name": "PodA30-162: truncated pyocyanin demethylase encoded by MFORT_14352 of Mycobacterium fortuitum lacking N-terminal helix, SEQ ID NO: 2 (protein, listed as Mycobacterium fortuitum)", "chain": "MDGRGGRSTTEPVTMTLDVKNDQVAKHDFGKPGMDVGDMDIFSDILSVDGKQVGYDGGACFFTNVTPDNPMTYCELTIHLDAGEIFARSLTPHTLAPFTMAITGGTGEYANSKGELTVSGVATPDEKYELKLTKAENLYFQ"}}, "key": {"[1]": {"test_system": "P. aeruginosa biofilm aggregates", "assay": "Biofilm aggregates embedded in agar blocks (anoxic fitness)", "type": "cell-based", "conditions": "22 hours growth then 5 hour treatment, 2 μg mL^−1; ~300 μm and deeper below agar surface", "protocol": "Biofilm aggregate experiments. To test the effect of oxygen limitation in the presence of PodA30-162, biofilm aggregates were grown embedded in 0.5% noble agar blocks containing succinate minimal medium. Cultures were grown overnight to stationary phase in LB, washed once with succinate minimal medium, and resuspended to OD600 1.0. Samples were diluted 1:100 in agar at 44° C. and 175 μL was transferred to Nunc Lab-Tek chambered coverglass slides (8-well, 0.7 cm^2 area, supplier #155409). […] SYTO-9 from the LIVE/DEAD stain kit was used in place of DAPI to minimize background fluorescence. […] Biomass was quantified in ImageJ software (60) by identifying the Z-slice with the highest average fluorescent intensity (generally […] the agar surface), and setting the pixel threshold using the default ImageJ thresholding parameters at the Z-slice equivalent to the 100 μm depth. The number of particles in each slice of the Z-stack was determined using this threshold value and counting particles >10 μm^2 in area. […] Particle numbers for each slice were averaged between independent experiments and plotted against depth to quantify biofilm aggregates. […]\nOxygen diffusion modeling. […] Given these values, average cell number per mL was estimated by dividing the volume of total detected biofilm aggregates by the average volume of a P. aeruginosa cell (62) yielding a cell density estimate of 5×10^8. […]"}, "Pa PA14 biofilm": {"test_system": "Pa PA14 biofilm", "assay": "Biofilm biomass by DAPI intensity (Example 7)", "type": "cell-based, P. aeruginosa", "protocol": "In this example, to check for an effect of PodA or 1-OH-PHZ on biofilm development, Pa PA14 was grown in 8-well chambered microscope slides designed for biofilm imaging, as previously reported (Das et al. (2015) Sci Rep. 5:8398). Overnight cultures of Pa PA14 were diluted to a starting optical density of 0.25 and grown directly on the slides (volume of 250 μl per chamber). After 5 h incubation at 37° C., planktonic cells were rinsed from the slide and remaining cells were stained with DAPI. Biofilm biomass was quantified by DAPI intensity on a Leica confocal microscope, with LAS X software. Pa PA14 incubated in the presence of 1 μM PodA or 100 μM 1-OHPHZox had ˜50% the biofilm biomass of Pa PA14 alone (FIG. 20A)."}, "P. aeruginosa biofilm": {"test_system": "P. aeruginosa biofilm", "assay": "Microcolony number and size in 5 hour biofilms on succinate minimal medium", "type": "cell-based", "conditions": "100 μM 1-OHPHZ or 0.5 μg mL-1 PodA", "source_text": "FIGS. 24A-C show charts and images illustrating results of exemplary experiments showing that PodA and 1-OH-PHZ inhibit the early stages of P. aeruginosa biofilm formation on succinate minimal medium. […] Numbers are averages and SD from 8 biological replicates."}, "[2]": {"test_system": "P. aeruginosa planktonic culture", "assay": "Phenazines in planktonic P. aeruginosa cultures (HPLC)", "type": "cell-based", "source_text": "Product was cut with DpnI to remove WT vector, phosphorylated with T4 polynucleotide kinase, and ligated to generate a circular mutant protein expression construct. For D72N and Y156F mutants, DNA fragments encoding the mutation were synthesized (Integrated DNA Technologies) and cloned into pET-20b(+) as for the wild type sequence. Enzymes for cloning were purchased from New England Biolabs. Constructs were transferred to E. coli BL21(DE3) for expression. All mutations were confirmed by Sanger sequencing (Laragen and Retrogen). When necessary, 100 μg mL^−1 carbenicillin was included in all growth media to maintain selection for the plasmid. To measure the effect of PodA30-162 on phenazine production in planktonically grown P. aeruginosa, cultures were grown overnight in 5 mL volumes of tryptic soy broth (TSB) or succinate minimal medium (arginine medium recipe from Glasser et al., 2014 with 40 mM sodium succinate in place of arginine) (3) in the presence 1 μg mL^−1 PodA30-162. Cells were removed by centrifugation and supernatants were analyzed by HPLC as previously described (9). See below for a description of biofilm growth of P. aeruginosa PA14. To induce protein expression, an overnight culture was inoculated 1/1000 in Terrific Broth (BD Difco). Cultures were grown in baffled Erlenmeyer flasks (1 L culture per 3 L flask) at 37° C. with 150 rpm agitation in a shaking incubator (Innova 44 shaking incubator, New Brunswick). After 3-4 hours, the temperature was changed to 16° C. and cultures were induced with 50 μM (final concentration) IPTG and left to incubate overnight. Cells were then pelleted by centrifugation, flash frozen in liquid N2, and stored at −80° C. for up to 1 month before protein purification."}}, "note": "“Also recorded” adds a separate entry of the source."}
{"molecule": "B1", "values": [{"measurement": "detectable biofilm aggregates at anoxic depths", "setting": "[1]", "value": "sharper decline in detectable aggregates; also recorded: apparent biomass defect specifically at anoxic depths"}, {"measurement": "biofilm biomass relative to Pa PA14 alone", "setting": "Pa PA14 biofilm; 1 μM PodA or 100 μM 1-OHPHZox, 5 h at 37° C", "value": "~50", "unit": "%"}, {"measurement": "biofilm formation compared to untreated control", "setting": "Pa PA14 biofilm; PodA 1 μM, 1-OH-PHZ 100 μM, total DAPI staining", "value": "inhibit biofilm formation"}, {"measurement": "microcolony diameter", "setting": "P. aeruginosa biofilm", "value": "decreases"}, {"measurement": "number of microcolonies formed", "setting": "P. aeruginosa biofilm; vs inactive E154A", "value": "decreases"}, {"measurement": "total phenazine concentrations", "setting": "[2]; TSB", "value": "remain constant"}, {"measurement": "enzyme stability in P. aeruginosa overnight culture", "setting": "[2]; TSB, enzyme added at start of culture", "value": "remained stable throughout the incubation period"}, {"measurement": "effect on PYO in planktonic culture", "setting": "[2]; rich and minimal medium, 1 μg mL^−1 PodA30-162", "value": "conversion of PYO to 1-OH-PHZ"}, {"measurement": "phenazine production", "setting": "[2]; tryptic soy broth, 24 hours", "value": "changes to the concentrations of all four phenazines"}]}
